In patent US7183110B2, “Antibody immunoreactive with a 5-enolpyruvylshikimate-3-phosphate synthase” (Monsanto Technology LLC, priority 1990, dated 2007):

B1: synthetic CP4 gene: EPSPS enzyme expressed in E. coli from the synthetic CP4 gene (SEQ ID NO:9) (protein, UniProt Q9R4E4 1-455, looked up)
3-phosphoshikimate …: MSHGASSRPATARKSSGLSGTVRIPGDKSISHRSFMFGGLASGETRITGLLEGEDVINTGKAMQAMGARIRKEGDTWIIDGVGNGGLLAPEAPLDFGNAATGCRLTMGLVGVYDFDSTFIGDASLTKRPMGRVLNPLREMGVQVKSEDGDRLPVTLRGPKTPTPITYRVPMASAQVKSAVLLAGLNTPGITTVIEPIMTRDHTEKMLQGFGANLTVETDADGVRTIRLEGRGKLTGQVIDVPGDPSSTAFPLVAALLVPGSDVTILNVLMNPTRTGLILTLQEMGADIEVINPRLAGGEDVADLRVRSSTLKGVTVPEDRAPSMIDEYPILAVAAAFAEGATVMNGLEELRVKESDRLSAVANGLKLNGVDCDEGETSLVVRGRPDGKGLGNASGAAVATHLDHRIAMSFLVMGLVSENPVTVDDATMIATSFPEFMDLMAGLGAKIELSDTKAA
B2: B. subtilis 1A2: Class II EPSPS from Bacillus subtilis 1A2 (SEQ ID NO:42) (protein, listed as Bacillus subtilis)
chain: MKRDKVQTLHGEIHIPGDKSISHRSVMFGALAAGTTTVKNFLPGADCLSTIDCFRKMGVHIEQSSSDVVIHGKGIDALKEPESLLDVGNSGTTIRLMLGILAGRPFYSAVAGDESIAKRPMKRVTEPLKKMGAKIDGRAGGEFTPLSVSGASLKGIDYVSPVASAQIKSAVLLAGLQAEGTTTVTEPHKSRDHTERMLSAFGVKLSEDQTSVSIAGGQKLTAADIFVPGDISSAAFFLAAGAMVPNSRIVLKNVGLNPTRTGIIDVLQNMGAKLEIKPSADSGAEPYGDLIIETSSLKAVEIGGDIIPRLIDEIPIIALLATQAEGTTVIKDAAELKVKETNRIDTVVSELRKLGAEIEPTADGMKVYGKQTLKGGAAVSSHGDHRIGMMLGIASCITEEPIEIEHTDAIHVSYPTFFEHLNKLSKKS
B3: Petunia: native Petunia EPSPS, a Class I EPSPS (protein)
chain: KPSEIVLQPIKEISGTVKLPGSKSLSNRILLLAALSEGTTVVDNLLSSDDIHYMLGALKTLGLHVEEDSANQRAVVEGCGGLFPVGKESKEEIQLFLGNAGTAMRPLTAAVTVAGGNSRYVLDGVPRMRERPISDLVDGLKQLGAEVDCFLGTKCPPVRIVSKGGLPGGKVKLSGSISSQYLTALLMAAPLALGDVEIEIIDKLISVPYVEMTLKLMERFGISVEHSSSWDRFFVRGGQKYKSPGKAFVEGDASSASYFLAGAAVTGGTITVEGCGTNSLQGDVKFAEVLEKMGAEVTWTENSVTVKGPPRSSSGRKHLRAIDVNMNKMPDVAMTLAVVALYADGPTAIRDVASWRVKETERMIAICTELRKLGATVEEGPDYCIITPPEKLNVTDIDTYDDHRMAMAFSLAACADVPVTINDPGCTRKTFPNYFDVLQQYSKH
modifications: Petunia x hybrida
B4: pMON21133: B. subtilis EPSPS (aroE) subcloned from ECE13 into pUC118, expressed in E. coli GB100 (protein, UniProt P54374 1-280, looked up)
Shikimate dehydrogenase …: MKKLYGVIGNPIGHSMSPDIHNASLKDLGLDGHYHAFKVEENDLEDAVKGIRALGVQGINVTVPHKVSIMDYLDHIDESAKVLGAVNTVRREGDKLVGYNTDGEGFVKSLMKVLDKPISELSFLMIGAGGAARAIFTTIVRNTPKKFDICNRTLEKAKRLTEATPSFHNKEVLSIKEAEERLEQYDVIIHTTSVGMYPNVDDVPLSLQRAASSAVVCDIVYNPIQTALLKEASQKGLKTLDGVGMFVEQAALSFQLWTGQEPNIEKMRSIVIGKLGGTEC
B5: pMON21132: B. subtilis EPSPS from the PCR-derived aroE clone, expressed in E. coli GB100 (protein, UniProt P54374 1-280, looked up)
Shikimate dehydrogenase …: B4 Shikimate dehydrogenase …
B6: PG2982: Class II EPSPS enzyme from Pseudomonas sp. strain PG2982 (SEQ ID NO:7) (protein, listed as Pseudomonas sp.)
chain: MSHSASPKPATARRSEALTGEIRIPGDKSISHRSFMFGGLASGETRITGLLEGEDVINTGRAMQAMGAKIRKEGDVWIINGVGNGCLLQPEAALDFGNAGTGARLTMGLVGTYDMKTSFIGDASLSKRPMGRVLNPLREMGVQVEAADGDRMPLTLIGPKTANPITYRVPMASAQVKSAVLLAGLNTPGVTTVIEPVMTRDHTEKMLQGFGADLTVETDKDGVRHIRITGQGKLVGQTIDVPGDPSSTAFPLVAALLVEGSDVTIRNVLMNPTRTGLILTLQEMGADIEVLNARLAGGEDVADLRVRASKLKGVVVPPERAPSMIDEYPVLAIAASFAEGETVMDGLDELRVKESDRLAAVARGLEANGVDCTEGEMSLTVRGRPDGKGLGGGTVATHLDHRIAMSFLVMGLAAEKPVTVDDSNMIATSFPEFMDMMPGLGAKIELSIL

Experiments:
[1] = molecular target: T1, CP4 EPSPS (Agrobacterium sp., UniProt Q9R4E4, S2A); experiment: EPSPS activity from native and synthetic CP4 EPSPS genes expressed in E. coli; type: biochemical, Agrobacterium sp. strain CP4
T1 construct: made in house; host or cells: E. coli, PRecA-gene10L vector
Excerpt: A synthetic CP4 gene was designed to change as completely as possible those inimical sequences discussed above. In summary, the gene sequence was redesigned to eliminate as much as possible the following sequences or sequence features (while avoiding the introduction of unnecessary restriction sites): stretches of G's and C's of 5 or greater; and A+T rich regions (predominantly) that could function as polyadenylation sites or potential RNA destabilization region The sequence of this gene is shown in FIG. 8 (SEQ ID NO:9). This coding sequence was expressed in E. coli from the RecA promoter and assayed for EPSPS activity and compared with that from the native CP4 EPSPS gene. […] The N-terminus of the coding sequence was mutagenized to place an SphI site at the ATG to permit the construction of the CTP2-CP4 synthetic fusion for chloroplast import. The following primer was used to accomplish this mutagenesis:
The EPSPS gene was isolated originally from Agrobacterium sp. strain CP4 and expresses a highly tolerant enzyme. The original gene contains sequences that could be inimical to high expression of the gene in some plants. […] The high G+C % in the CP4 EPSPS gene could also result in the formation of strong hairpin structures that may affect expression or stability of the RNA. A plant preferred version of the gene was synthesized and used for these vectors. This coding sequence was expressed in E. coli from a PRecA-gene10L vector (Olins et al., 1988) and the EPSPS activity was compared with that from the native CP4 EPSPS gene. […] The N-terminus of the coding sequence was then mutagenized to place an SphI site (GCATGC) at the ATG to permit the construction of the CTP2-CP4 synthetic fusion for chloroplast import. This change had no apparent effect on the in vivo activity of CP4 EPSPS in E. coli as judged by complementation of the aroA mutant. A CTP-CP4 EPSPS fusion was constructed between the Arabidopsis thaliana EPSPS CTP (Klee et al., 1987) and the CP4 EPSPS coding sequences. The Arabidopsis CTP was engineered by site-directed mutagenesis to place a SphI restriction site at the CTP processing site. This mutagenesis replaced the Glu-Lys at this location with Cys-Met. The CTP2-CP4 EPSPS fusion was tested for import into chloroplasts isolated from Lactuca sativa using the methods described previously (della-Cioppa et al., 1986: 1987).

[2] = molecular target: T2, B. subtilis EPSPS (Bacillus subtilis, UniProt P20691); experiment: EPSPS assay and kinetics of B. subtilis EPSPS in crude bacterial extract; type: biochemical; details: for EPSPS specific activity: crude extract
T2 construct: Standard EPSPS assay reactions contained crude bacterial extract; endogenous in cells; host or cells: Bacillus subtilis 1A2 crude extract; some values from E. coli GB100 carrying pMON21133 (subclone) or pMON21132 (PCR clone)
Procedure: Bacillus subtilis 1A2 (prototroph) was obtained from the Bacillus Genetic Stock Center at Ohio State University. Standard EPSPS assay reactions contained crude bacterial extract with, 1 mM phosphoenolpyruvate (PEP), 2 mM shikimate-3-phosphate (S3P), 0.1 mM ammonium molybdate, 5 mM potassium fluoride, and 50 mM HEPES, pH 7.0 at 25° C. One unit (U) of EPSPS activity is defined as one μmol EPSP formed per minute under these conditions. For kinetic determinations, reactions contained crude bacterial, 2 mM S3P, varying concentrations of PEP, and 50 mM HEPES, pH 7.0 at 25° C. […] When the assays were performed in the presence of 1 mM glyphosate, 100% of the EPSPS activity was retained. The appKm(PEP) of the B. subtilis EPSPS was determined by measuring the reaction velocity at varying concentrations of PEP. The results were analyzed graphically by the hyperbolic, Lineweaver-Burk and Eadie-Hofstee plots which yielded appKm(PEP) values of 15.3 μM, 10.8 μM and 12.2 μM, respectively. These three data treatments are in good agreement, and yield an average value for appKm(PEP) of 13 μM. The appKi(glyphosate) was estimated by determining the reaction rates of B. subtilis 1A2 EPSPS in the presence of several concentrations of glyphosate, at a PEP concentration of 2 μM.
The other approach to the isolation of the B. subtilis aroE gene, subcloning from ECE13 into pUC118, was performed as follows: • (i) Cut ECE13 and pUC with XmaI and SphI. • (ii) Isolate 1700 bp aroE fragment and 2600 bp pUC118 vector fragment. • (iii) Ligate fragments and transform into GB100. The subclone was designated pMON21133 and the PCR-derived clone was named pMON21132. Clones from both approaches were first confirmed for complementation of the aroA mutation in E. coli GB100. […] These specific activities reflect the expected types of expression levels of the two vectors. […] The appKm(PEP) and the appKi(glyphosate) of the subcloned B. subtilis EPSPS (pMON21133) were determined as described above. […] Characterization of the EPSPS Gene from Staphylococcus aureus

[3] = test system: EPSPS enzymes; experiment: Kinetic characterization of EPSPS enzymes (Km PEP, Ki glyphosate); type: biochemical; details: for Ki/Km: Ki glyphosate / Km PEP; for Km: Km of the EPSPS enzyme for phosphoenolpyruvate, PEP ranges tested in table footnotes
Procedure: The EPSPS enzymes from these microorganisms were then subjected to further study and analysis.
When the change introduced into the Petunia EPSPS (GA101) was introduced into a number of other EPSPS enzymes, similar changes in kinetics were observed, an elevation of the Ki for glyphosate and of the Km for PEP.
All protein purification procedures were carried out at 3–5° C. EPSPS enzyme assays were performed using either the phosphate release or radioactive HPLC method, as previously described in Padgette et al., 1987, using 1 mM phosphoenol pyruvate (PEP, Boehringer) and 2 mM shikimate-3-phosphate (S3P) substrate concentrations. For radioactive HPLC assays, ^14C-PEP (Amersham) was utilized. S3P was synthesized as previously described in Wibbenmeyer et al. 1988. N-terminal amino acid sequencing was performed by loading samples onto a Polybrene precycled filter in aliquots while drying. Automated Edman degradation chemistry was used to determine the N-terminal protein sequence, using an Applied Biosystems Model 470A gas phase sequencer (Hunkapiller et al., 1983) with an Applied Biosystems 120A PTH analyzer.

[4] = test system: rabbit anti-EPSPS antibody; experiment: Western analysis with rabbit anti-EPSPS antibody to the Petunia EPSPS protein; type: binding; details: crude extracts 50 μg protein; control Petunia EPSPS 20 ng; Protein A-125I development
Excerpt: The presence of EPSPS activity in these extracts was confirmed by enzyme assay. This surprising result, indicating a lack of similarity between the EPSPS's from these bacterial isolates and those previously studied, coupled with the combination of a low Km for PEP and a high Ki for glyphosate, illustrates that these new EPSPS enzymes are different from known EPSPS enzymes (now referred to as Class I EPSPS).

[5] = 2 mM S3P, varying PEP, pH 7.0, 25° C.
[6] = 1 mM PEP, 2 mM S3P, pH 7.0, 25° C.

T1 sequence (Q9R4E4 whole entry S2A): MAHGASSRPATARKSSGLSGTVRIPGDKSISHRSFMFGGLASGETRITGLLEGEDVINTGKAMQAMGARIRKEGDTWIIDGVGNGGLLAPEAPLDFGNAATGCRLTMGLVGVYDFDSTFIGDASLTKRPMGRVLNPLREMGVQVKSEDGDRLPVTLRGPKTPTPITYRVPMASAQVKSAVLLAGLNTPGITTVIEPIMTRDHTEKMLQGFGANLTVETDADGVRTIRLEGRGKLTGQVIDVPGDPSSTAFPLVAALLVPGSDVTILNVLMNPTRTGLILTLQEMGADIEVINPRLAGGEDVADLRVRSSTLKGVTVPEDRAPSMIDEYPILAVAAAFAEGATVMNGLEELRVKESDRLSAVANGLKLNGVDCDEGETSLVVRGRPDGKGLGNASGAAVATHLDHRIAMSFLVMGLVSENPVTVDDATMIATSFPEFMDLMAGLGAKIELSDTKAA

Molecule	EPSPS specific activity [2, 6] [U/mg]	Ki/Km [3]	Km [3] [µM]	other results
B1				appKm for PEP ([1]; expressed in E. coli from a PRecA-gene10L vector): 12.7 µM; Km ([1]; expressed in E. coli from the RecA promoter, read-out: apparent Km for PEP): 12.7 µM
B2	0.003	33.8	13	EPSPS activity retained in the presence of 1 mM glyphosate ([2]; 1 mM glyphosate, 1 mM PEP, 2 mM S3P): 100%; appKm(PEP), Eadie-Hofstee plot [2, 5]: 12.2 µM; appKm(PEP), Lineweaver-Burk plot [2, 5]: 10.8 µM; appKm(PEP), hyperbolic plot [2, 5]: 15.3 µM; average value for appKm(PEP) ([2]; average of three data treatments): 13 µM
B3		0.08	5	signal in Western analysis with rabbit anti-EPSPS antibody [4]: readily detected
B4	0.044			
B5	0.71			
B6		~8–40	2.1 to 3.1	
